Our source for the IC50 values is article PMC2133028.

The target in this assay is GST-hCASK PDZ fusion protein (residues 489-572) (human). Briefly: pull-down.

No end group written: not given here.

As a reminder, the IC50 is the concentration that inhibits the measured activity by half. Lower therefore signals greater potency. Consider APTKEFYA-OH [COOH-terminal syndecan-2 peptide (APTKEFYA-COOH)], for which the IC50 lay within 40 to 70 µM.
